Experimental findings from the RNAGym collection of RNA variant scans (doi:10.1021/acssynbio.7b00057) are described below.

Sequences and labels used below:
B1: Pistol ribozyme (parent)
chain: GGGUCGUUGUUCCAUAAUCGCGUGGAUAUGGCACGCAAGUUUCUACCGGGCACCGUAAAUGUCCGACUGGAGCCGUUCGGGCGGCUAUAAACAGACCUCAGGCCCGAAGCGUGGCGGCACCUGCCGCCGGUGGUAAAAAAGAUCGGAAGAGCACACGUCU

Variants of B1 are the subject of this data set. Nature of the data set: aptazyme ON/OFF ratio, guanine; higher = stronger switching; co-transcriptional cleavage with and without guanine.
U7G U8G G9C U11C C12U C13A: the “aptazyme ON/OFF ratio” value was found to be 1.43.

U7G U8G G9C U11C C12U C13G: the “aptazyme ON/OFF ratio” value came out at 1.37.

As for U7G U8G G9C U11C C12U C13U, the “aptazyme ON/OFF ratio” value amounted to 1.26.

On to U7G U8G G9U C12U C13G, for which the “aptazyme ON/OFF ratio” value came to 1.14.

U7G U8G G9U C12U C13U: the “aptazyme ON/OFF ratio” value turned out to be 1.26.

Regarding U7G U8G G9U C12U C13A, the “aptazyme ON/OFF ratio” value came out at 1.23.

Consider U7G U8G G9U U10A U11C C12A, for which the “aptazyme ON/OFF ratio” value was 1.32.

U7G U8G G9U U10A U11C C12U: the “aptazyme ON/OFF ratio” value turned out to be 1.22.

As for U7G U8G G9U U10A U11C C12G, the “aptazyme ON/OFF ratio” value came out at 1.19.

Regarding U7G U8G G9U U10C U11A C12U, the “aptazyme ON/OFF ratio” value amounted to 1.28.

Take U7G U8G G9U U10C U11A C12G: the “aptazyme ON/OFF ratio” value was found to be 1.25.

For U7G U8G G9U U10C U11A C12A, the “aptazyme ON/OFF ratio” value is 1.28.

For the variant U7G U8G G9U U10A C12G C13A, the “aptazyme ON/OFF ratio” value is 1.07.

As to U7G U8G G9U U10A C12G C13G, the “aptazyme ON/OFF ratio” value worked out at 1.09.

With U7G U8G G9U U10A C12G C13U, the “aptazyme ON/OFF ratio” value turned out to be 1.13.

Take U7G U8G G9C U11A: the “aptazyme ON/OFF ratio” value worked out at 4.32.

In the case of U7G U8G G9C U11G, the “aptazyme ON/OFF ratio” value came to 2.2.

As to U7G U8G G9C U11C, the “aptazyme ON/OFF ratio” value was determined as 2.07.

Consider U7G U8G G9U U10C U11G C13A, for which the “aptazyme ON/OFF ratio” value came to 1.22.

With U7G U8G G9U U10C U11G C13U, the “aptazyme ON/OFF ratio” value stood at 1.28.

On to U7G U8G G9U U10C U11G C13G, for which the “aptazyme ON/OFF ratio” value amounted to 1.21.

As to U7G U8G G9U U10C U11G C12U, the “aptazyme ON/OFF ratio” value stood at 1.22.

As for U7G U8G G9U U10C U11G C12A, the “aptazyme ON/OFF ratio” value is 1.32.

Consider U7G U8G G9U U10C U11G C12G, for which the “aptazyme ON/OFF ratio” value worked out at 1.39.

On to U7G U8G G9C U10G U11A C12A, for which the “aptazyme ON/OFF ratio” value worked out at 1.17.

For U7G U8G G9C U10G U11A C12G, the “aptazyme ON/OFF ratio” value is 1.16.

With U7G U8G G9C U10G U11A C12U, the “aptazyme ON/OFF ratio” value worked out at 1.23.

For the variant U7G U8G G9U U10G U11C C12U C13G, the “aptazyme ON/OFF ratio” value was 1.19.

On to U7G U8G G9U U10G U11C C12U C13U, for which the “aptazyme ON/OFF ratio” value was found to be 1.03.

For the variant U7G U8G G9U U10G U11C C12U C13A, the “aptazyme ON/OFF ratio” value came out at 1.06.

As for U7G U8G G9C U10G U11G C12G C13A, the “aptazyme ON/OFF ratio” value is 1.06.

Consider U7G U8G G9C U10G U11G C12G C13G, for which the “aptazyme ON/OFF ratio” value is 1.17.

As to U7G U8G G9C U10G U11G C12G C13U, the “aptazyme ON/OFF ratio” value was determined as 1.1.

Turning to U7G U8G G9C U11G C13U, the “aptazyme ON/OFF ratio” value came to 1.49.

For U7G U8G G9C U11G C13A, the “aptazyme ON/OFF ratio” value amounted to 1.3.

As to U7G U8G G9C U11G C13G, the “aptazyme ON/OFF ratio” value is 1.16.

For U7G U8G G9U U10C C12U, the “aptazyme ON/OFF ratio” value was 1.28.

U7G U8G G9U U10C C12A: the “aptazyme ON/OFF ratio” value came out at 1.38.

As to U7G U8G G9U U10C C12G, the “aptazyme ON/OFF ratio” value is 1.22.

U7G U8G G9U U10C C12G C13U: the “aptazyme ON/OFF ratio” value amounted to 1.25.

As for U7G U8G G9U U10C C12G C13G, the “aptazyme ON/OFF ratio” value was found to be 1.1.

With U7G U8G G9U U10C C12G C13A, the “aptazyme ON/OFF ratio” value is 1.24.

With U7G U8G G9C U10G U11A C12A C13G, the “aptazyme ON/OFF ratio” value stood at 1.12.

Consider U7G U8G G9C U10G U11A C12A C13U, for which the “aptazyme ON/OFF ratio” value was found to be 1.11.

Take U7G U8G G9C U10G U11A C12A C13A: the “aptazyme ON/OFF ratio” value was found to be 1.14.

Regarding U7G U8G G9C U10G U11C C12A C13U, the “aptazyme ON/OFF ratio” value is 1.12.

For U7G U8G G9C U10G U11C C12A C13G, the “aptazyme ON/OFF ratio” value worked out at 1.05.

For the variant U7G U8G G9C U10G U11C C12A C13A, the “aptazyme ON/OFF ratio” value was determined as 1.1.

As for U7G U8G G9U U10G U11A C12A C13G, the “aptazyme ON/OFF ratio” value was determined as 1.06.

Turning to U7G U8G G9U U10G U11A C12A C13A, the “aptazyme ON/OFF ratio” value amounted to 1.07.

In the case of U7G U8G G9U U10G U11A C12A C13U, the “aptazyme ON/OFF ratio” value amounted to 1.18.

With U7G U8G G9U U10A U11G C12G C13U, the “aptazyme ON/OFF ratio” value is 1.05.

U7G U8G G9U U10A U11G C12G C13G: the “aptazyme ON/OFF ratio” value was 1.06.

For the variant U7G U8G G9U U10A U11G C12G C13A, the “aptazyme ON/OFF ratio” value was determined as 1.13.

For U7G U8G G9C U11C C12G, the “aptazyme ON/OFF ratio” value was 3.

On to U7G U8G G9C U11C C12A, for which the “aptazyme ON/OFF ratio” value came out at 5.2.

U7G U8G G9C U11C C12U: the “aptazyme ON/OFF ratio” value worked out at 2.49.

On to U7G U8G G9U U10G C12A C13G, for which the “aptazyme ON/OFF ratio” value was 1.14.

With U7G U8G G9U U10G C12A C13A, the “aptazyme ON/OFF ratio” value came to 1.09.

On to U7G U8G G9U U10G C12A C13U, for which the “aptazyme ON/OFF ratio” value was 1.16.

With U7G U8G G9U U10A U11A C13G, the “aptazyme ON/OFF ratio” value was 1.08.

For the variant U7G U8G G9U U10A U11A C13U, the “aptazyme ON/OFF ratio” value amounted to 1.28.

For U7G U8G G9U U10A U11A C13A, the “aptazyme ON/OFF ratio” value stood at 1.14.

As for U7G U8G G9C U10C U11G C12G C13G, the “aptazyme ON/OFF ratio” value turned out to be 1.17.

On to U7G U8G G9C U10C U11G C12G C13U, for which the “aptazyme ON/OFF ratio” value turned out to be 1.07.

With U7G U8G G9C U10C U11G C12G C13A, the “aptazyme ON/OFF ratio” value worked out at 1.19.

Consider U7G U8G G9C U10G U11C C12U, for which the “aptazyme ON/OFF ratio” value came out at 1.04.

Consider U7G U8G G9C U10G U11C C12A, for which the “aptazyme ON/OFF ratio” value amounted to 1.25.

With U7G U8G G9C U10G U11C C12G, the “aptazyme ON/OFF ratio” value was 1.18.

For U7G U8G G9C U10C U11G C12A C13U, the “aptazyme ON/OFF ratio” value came out at 1.3.

In the case of U7G U8G G9C U10C U11G C12A C13A, the “aptazyme ON/OFF ratio” value was determined as 1.17.

As for U7G U8G G9C U10C U11G C12A C13G, the “aptazyme ON/OFF ratio” value was 1.31.

Regarding U7G U8G G9U U10G U11G C12A C13U, the “aptazyme ON/OFF ratio” value worked out at 1.06.

Take U7G U8G G9U U10G U11G C12A C13G: the “aptazyme ON/OFF ratio” value was 1.1.

Turning to U7G U8G G9U U10G U11G C12A C13A, the “aptazyme ON/OFF ratio” value came to 1.04.

Consider U7G U8G G9U U10G U11C C13U, for which the “aptazyme ON/OFF ratio” value worked out at 1.11.

With U7G U8G G9U U10G U11C C13G, the “aptazyme ON/OFF ratio” value was 1.17.

Consider U7G U8G G9U U10G U11C C13A, for which the “aptazyme ON/OFF ratio” value stood at 1.18.

For the variant U7G U8G G9C U10G C12U C13U, the “aptazyme ON/OFF ratio” value worked out at 1.09.

Turning to U7G U8G G9C U10G C12U C13A, the “aptazyme ON/OFF ratio” value turned out to be 1.06.

With U7G U8G G9C U10G C12U C13G, the “aptazyme ON/OFF ratio” value was 1.05.

Turning to U7G U8G G9U U10G U11C C12A, the “aptazyme ON/OFF ratio” value was determined as 1.13.

As to U7G U8G G9U U10G U11C C12U, the “aptazyme ON/OFF ratio” value worked out at 1.04.
